Drawing on US20170015742A1 (published 2017), this text covers Kd and kon for five molecules.

One test addresses VEGF-A (UniProt P15692-4 27-191, limits assumed). Nature of the test: SPR (Biacore), DVD-Ig captured by anti-human Fc, antigen injected. The protocol: (§1) For example, approximately 9000 RU of goat anti-human Fc specific polyclonal antibody (Thermo Fisher Scientific Inc., Rockford, Ill.) diluted in 10 mM sodium acetate (pH 4.5) is directly immobilized across a CM5 research grade biosensor chip using a standard amine coupling kit according to manufacturer's instructions and procedures at 25 μg/ml. Unreacted moieties on the biosensor surface were blocked with ethanolamine. For kinetic analysis, rate equations derived from the 1:1 Langmuir binding model were fitted simultaneously to multiple antigen injections (using global fit analysis) with the use of Scrubber 2 (BioLogic Software), Biacore Biaevaluation 4.0.1 software or Biacore T100 Evaluation software. Purified antibodies or DVD-Ig molecules were diluted in running buffer for capture across goat anti-human Fc reaction surfaces. Antibodies or DVD-Ig molecules to be captured as a ligand (1 μg/ml) were injected over reaction matrices at a flow rate of 10 μl/minute. During the assay, all measurements were referenced against the capture surface alone (i.e., with no captured antibody or DVD-Ig molecule). […] The equilibrium dissociation constant KD (M) of the reaction between antibodies and the target antigen was then calculated from the kinetic rate constants by the following formula: KD=Koff/Kₒₙ. Binding was recorded as a function of time and kinetic rate constants were calculated.

A further test deals with PDGF-BB (UniProt P01127 82-190). The description is as above. Here is the method: as §1
PDGF-BB, sequence (P01127 82-190): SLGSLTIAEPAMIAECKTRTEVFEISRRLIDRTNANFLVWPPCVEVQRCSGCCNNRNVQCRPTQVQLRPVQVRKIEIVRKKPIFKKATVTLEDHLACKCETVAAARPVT

VEGF-A, sequence (P15692 other isoform, or with tags, fused parts or gaps limits assumed): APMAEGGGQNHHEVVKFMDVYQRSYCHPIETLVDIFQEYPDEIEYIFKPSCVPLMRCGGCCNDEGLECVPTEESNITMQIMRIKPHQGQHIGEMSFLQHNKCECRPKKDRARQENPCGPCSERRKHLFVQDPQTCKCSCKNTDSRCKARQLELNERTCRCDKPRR

B1: 3E2.1_GS_9E10.1 (PR-1612500) (bispecific antibody, human IgG1, kappa, L234A L235A)
heavy: EVQLVQSGAEVKKPGSSVKVSCKASGYTFTESYMYWVKQAPGQGLELIGRIDPEDGSTDYVEKFKNKATLTADKSTSTAYMELSSLRSEDTAVYFCARFGARSYFYPMDAWGQGTTVTVSSGGGGSGGGGSEIQLVQSGSELKKPGASVKVSCKASGYTFTNYGMYWVKQAPGQGLEYMGWIDTETGRPTYADDFKGRFVFSLDTSVSTAYLQISSLKAEDTAVYFCARWSGDTTGIRGPWFAYWGQGTLVTVSSASTKGPSVFPLAPSSKSTSGGTAALGCLVKDYFPEPVTVSWNSGALTSGVHTFPAVLQSSGLYSLSSVVTVPSSSLGTQTYICNVNHKPSNTKVDKKVEPKSCDKTHTCPPCPAPEAAGGPSVFLFPPKPKDTLMISRTPEVTCVVVDVSHEDPEVKFNWYVDGVEVHNAKTKPREEQYNSTYRVVSVLTVLHQDWLNGKEYKCKVSNKALPAPIEKTISKAKGQPREPQVYTLPPSREEMTKNQVSLTCLVKGFYPSDIAVEWESNGQPENNYKTTPPVLDSDGSFFLYSKLTVDKSRWQQGNVFSCSVMHEALHNAYTQKSLSLSPGK
light: ETVLTQSPATLSLSPGERATLSCRASESVSTLMHWYQQKPGQQPRLLIYGASNLESGVPARFSGSGSGTDFTLTISSLEPEDFAVYFCQQSWNDPWTFGGGTKVEIKGGSGGGGSGGDIRMTQSPSSLSASVGDRVTIECLASEDIYSDLAWYQQKPGKSPKLLIYNANGLQNGVPSRFSGSGSGTDYSLTISSLQPEDVATYFCQQYNYFPGTFGQGTKLEIKRTVAAPSVFIFPPSDEQLKSGTASVVCLLNNFYPREAKVQWKVDNALQSGNSQESVTEQDSKDSTYSLSSTLTLSKADYEKHKVYACEVTHQGLSSPVTKSFNRGEC
notes: DVD-Ig: outer hBFU-3E2.1 (PDGF), inner hBEW-9E10.1 (VEGF), linkers GS-H10 / GS-L10(dR); Human IgG1 L234A, L235A, H435A with kappa light chain
Consider B1, for which the Kd (usually the constant that tells how readily two partners part at equilibrium) with VEGF-A was 0.019 nM; with PDGF-BB it was not above 0.0043 nM. For the same molecule, the kon (as a rule, the second-order rate constant of association) in the test with VEGF-A was 630000 M⁻¹ s⁻¹; in the test with PDGF-BB, not below 9e+07 M⁻¹ s⁻¹.

B2: 3E2.1_GS_9E10.6 (PR-1612501) (bispecific antibody, human IgG1, kappa, L234A L235A)
heavy: EVQLVQSGAEVKKPGSSVKVSCKASGYTFTESYMYWVKQAPGQGLELIGRIDPEDGSTDYVEKFKNKATLTADKSTSTAYMELSSLRSEDTAVYFCARFGARSYFYPMDAWGQGTTVTVSSGGGGSGGGGSEVQLVQSGAEVKKPGSSVKVSCKASGYTFTNYGMYWVRQAPGQGLEWMGWIDTETGRPTYADDFKGRFTFTADKSTSTAYMELSSLRSEDTAVYYCARWSGDTTGIRGPWFAYWGQGTLVTVSSASTKGPSVFPLAPSSKSTSGGTAALGCLVKDYFPEPVTVSWNSGALTSGVHTFPAVLQSSGLYSLSSVVTVPSSSLGTQTYICNVNHKPSNTKVDKKVEPKSCDKTHTCPPCPAPEAAGGPSVFLFPPKPKDTLMISRTPEVTCVVVDVSHEDPEVKFNWYVDGVEVHNAKTKPREEQYNSTYRVVSVLTVLHQDWLNGKEYKCKVSNKALPAPIEKTISKAKGQPREPQVYTLPPSREEMTKNQVSLTCLVKGFYPSDIAVEWESNGQPENNYKTTPPVLDSDGSFFLYSKLTVDKSRWQQGNVFSCSVMHEALHNAYTQKSLSLSPGK
light: ETVLTQSPATLSLSPGERATLSCRASESVSTLMHWYQQKPGQQPRLLIYGASNLESGVPARFSGSGSGTDFTLTISSLEPEDFAVYFCQQSWNDPWTFGGGTKVEIKGGSGGGGSGGDIRMTQSPSSLSASVGDRVTITCLASEDIYSDLAWYQQKPGKSPKLLIYNANGLQNGVPSRFSGSGSGTDYTLTISSLQPEDVATYFCQQYNYFPGTFGQGTKLEIKRTVAAPSVFIFPPSDEQLKSGTASVVCLLNNFYPREAKVQWKVDNALQSGNSQESVTEQDSKDSTYSLSSTLTLSKADYEKHKVYACEVTHQGLSSPVTKSFNRGEC
notes: DVD-Ig: outer hBFU-3E2.1 (PDGF), inner hBEW-9E10.6 (VEGF), linkers GS-H10 / GS-L10(dR); Human IgG1 L234A, L235A, H435A with kappa light chain
With B2, the Kd in the test with VEGF-A was 0.041 nM; with PDGF-BB it was not above 0.0053 nM. Besides, the kon with VEGF-A was 570000 M⁻¹ s⁻¹; in the test with PDGF-BB, not below 9e+07 M⁻¹ s⁻¹.

B3: CL-33675_GS_4G8.5 (PR-1612496) (bispecific antibody, human IgG1, kappa, L234A L235A)
heavy: EVTLRESGPALVKPTQTLTLTCTFSGFSLSTYGMGVGWIRQPPGKALEWLANIWWDDDKYYNPSLKNRLTISKDTSKNQVVLTMTNMDPVDTATYYCARIESSGPKYSFDYWGQGTMVTVSSGGGGSGGGGSEIQLVQSGSELKKPGASVKVSCKASGYTFTNYGMYWVRQAPGQGLEYMGWINTETGKPTYADDFKGRFVFSLDTSVSTAYLQISSLKAEDTAVYFCARTNYYYRSYIFYFDYWGQGTMVTVSSASTKGPSVFPLAPSSKSTSGGTAALGCLVKDYFPEPVTVSWNSGALTSGVHTFPAVLQSSGLYSLSSVVTVPSSSLGTQTYICNVNHKPSNTKVDKKVEPKSCDKTHTCPPCPAPEAAGGPSVFLFPPKPKDTLMISRTPEVTCVVVDVSHEDPEVKFNWYVDGVEVHNAKTKPREEQYNSTYRVVSVLTVLHQDWLNGKEYKCKVSNKALPAPIEKTISKAKGQPREPQVYTLPPSREEMTKNQVSLTCLVKGFYPSDIAVEWESNGQPENNYKTTPPVLDSDGSFFLYSKLTVDKSRWQQGNVFSCSVMHEALHNAYTQKSLSLSPGK
light: EIVLTQSPGTLSLSPGERATLSCRASSGSIWYSFVSWYQQKPGQAPRLLIYADDQRASGIPDRFSGSGSGTDFTLTISRLEPEDFAVYYCQSYGINIDVVFGGGTKVEIKGGSGGGGSGGATQLTQSPSLSASVGDRVTITCRASESVSTHMHWYQQKPGKQPKLLIYGASNLESGVPSRFSGSGSGTDFTLTISSLQPEDFATYFCQQSWNDPFTFGQGTKLEIKRTVAAPSVFIFPPSDEQLKSGTASVVCLLNNFYPREAKVQWKVDNALQSGNSQESVTEQDSKDSTYSLSSTLTLSKADYEKHKVYACEVTHQGLSSPVTKSFNRGEC
notes: DVD-Ig: outer CL-33675 (PDGF), inner hBDB-4G8.5 (VEGF), linkers GS-H10 / GS-L10(dR); Human IgG1 L234A, L235A, H435A with kappa light chain
Regarding B3, in the test with VEGF-A, the Kd worked out at 0.18 nM and the kon came out at 230000 M⁻¹ s⁻¹. For the same molecule, in the test with PDGF-BB, the affinity, expressed as Kd, was 0.00023 nM and the kon amounted to 3.8e+07 M⁻¹ s⁻¹.

B4: 3E2.1_GS_4G8.5 (PR-1612499) (bispecific antibody, human IgG1, kappa, L234A L235A)
heavy: EVQLVQSGAEVKKPGSSVKVSCKASGYTFTESYMYWVKQAPGQGLELIGRIDPEDGSTDYVEKFKNKATLTADKSTSTAYMELSSLRSEDTAVYFCARFGARSYFYPMDAWGQGTTVTVSSGGGGSGGGGSEIQLVQSGSELKKPGASVKVSCKASGYTFTNYGMYWVRQAPGQGLEYMGWINTETGKPTYADDFKGRFVFSLDTSVSTAYLQISSLKAEDTAVYFCARTNYYYRSYIFYFDYWGQGTMVTVSSASTKGPSVFPLAPSSKSTSGGTAALGCLVKDYFPEPVTVSWNSGALTSGVHTFPAVLQSSGLYSLSSVVTVPSSSLGTQTYICNVNHKPSNTKVDKKVEPKSCDKTHTCPPCPAPEAAGGPSVFLFPPKPKDTLMISRTPEVTCVVVDVSHEDPEVKFNWYVDGVEVHNAKTKPREEQYNSTYRVVSVLTVLHQDWLNGKEYKCKVSNKALPAPIEKTISKAKGQPREPQVYTLPPSREEMTKNQVSLTCLVKGFYPSDIAVEWESNGQPENNYKTTPPVLDSDGSFFLYSKLTVDKSRWQQGNVFSCSVMHEALHNAYTQKSLSLSPGK
light: ETVLTQSPATLSLSPGERATLSCRASESVSTLMHWYQQKPGQQPRLLIYGASNLESGVPARFSGSGSGTDFTLTISSLEPEDFAVYFCQQSWNDPWTFGGGTKVEIKGGSGGGGSGGATQLTQSPSLSASVGDRVTITCRASESVSTHMHWYQQKPGKQPKLLIYGASNLESGVPSRFSGSGSGTDFTLTISSLQPEDFATYFCQQSWNDPFTFGQGTKLEIKRTVAAPSVFIFPPSDEQLKSGTASVVCLLNNFYPREAKVQWKVDNALQSGNSQESVTEQDSKDSTYSLSSTLTLSKADYEKHKVYACEVTHQGLSSPVTKSFNRGEC
notes: DVD-Ig: outer hBFU-3E2.1 (PDGF), inner hBDB-4G8.5 (VEGF), linkers GS-H10 / GS-L10(dR); Human IgG1 L234A, L235A, H435A with kappa light chain
In the test with VEGF-A, B4 returned a Kd of 0.17 nM and a kon of 240000 M⁻¹ s⁻¹. In the test with PDGF-BB, the dissociation constant (Kd) was not above 0.0038 nM and the kon was not below 9e+07 M⁻¹ s⁻¹.

B5: 3E2.1_GS_1B10.1 (PR-1612502) (bispecific antibody, human IgG1, kappa, L234A L235A)
heavy: EVQLVQSGAEVKKPGSSVKVSCKASGYTFTESYMYWVKQAPGQGLELIGRIDPEDGSTDYVEKFKNKATLTADKSTSTAYMELSSLRSEDTAVYFCARFGARSYFYPMDAWGQGTTVTVSSGGGGSGGGGSEVQLVESGGGLVQPGGSLRLSCAASGFSFSKYDMAWFRQAPGKGLEWVASITTSGVGTYYRDSVKGRFTVSRDNAKSTLYLQMNSLRAEDTAVYYCARGYGAMDAWGQGTTVTVSSASTKGPSVFPLAPSSKSTSGGTAALGCLVKDYFPEPVTVSWNSGALTSGVHTFPAVLQSSGLYSLSSVVTVPSSSLGTQTYICNVNHKPSNTKVDKKVEPKSCDKTHTCPPCPAPEAAGGPSVFLFPPKPKDTLMISRTPEVTCVVVDVSHEDPEVKFNWYVDGVEVHNAKTKPREEQYNSTYRVVSVLTVLHQDWLNGKEYKCKVSNKALPAPIEKTISKAKGQPREPQVYTLPPSREEMTKNQVSLTCLVKGFYPSDIAVEWESNGQPENNYKTTPPVLDSDGSFFLYSKLTVDKSRWQQGNVFSCSVMHEALHNAYTQKSLSLSPGK
light: ETVLTQSPATLSLSPGERATLSCRASESVSTLMHWYQQKPGQQPRLLIYGASNLESGVPARFSGSGSGTDFTLTISSLEPEDFAVYFCQQSWNDPWTFGGGTKVEIKGGSGGGGSGGDIQMTQSPSSLSASVGDRVTITCKASQDIDDYLSWYQQKPGKSPKLVIYAATRLADGVPSRFSGSGSGTDYTLTISSLQPEDFATYYCLQSSSTPWTFGGGTKVEIKRTVAAPSVFIFPPSDEQLKSGTASVVCLLNNFYPREAKVQWKVDNALQSGNSQESVTEQDSKDSTYSLSSTLTLSKADYEKHKVYACEVTHQGLSSPVTKSFNRGEC
notes: DVD-Ig: outer hBFU-3E2.1 (PDGF), inner hBEW-1B10.1 (VEGF), linkers GS-H10 / GS-L10(dR); Human IgG1 L234A, L235A, H435A with kappa light chain
For B5, in the test with VEGF-A, the Kd was 0.32 nM and the kon was 350000 M⁻¹ s⁻¹. In the test with PDGF-BB, this molecule yielded an equilibrium dissociation constant (Kd) of 0.0018 nM and a kon of 8.4e+07 M⁻¹ s⁻¹.
